Key:
[1] = molecular target: the molecule itself; test: SEC; FSEC of eGFP fusion constructs affinity purified in digitonin micelles; Superose 6 10/300, GFP fluorescence detected
[2] = molecular target: the molecule itself; test: SEC; FSEC, thermal disassembly: protein diluted 200-fold into destabilizing buffer pH 6 without or with cAMP (up to 5 mM), heated 10 min to the desired temperature; ratio of monomer to dimer species (ρ) against temperature; dimer to monomers

Protein	stoichiometry N [1]	binding result [2]	further results
sp9C1 truncated at amino acid position 950, eGFP fusion (domain or fragment, Strongylocentrotus purpuratus, UniProt A3RL54 30-950, looked up, SLC9C1, Strongylocentrotus purpuratus, truncated at amino acid position 950; the CNBD, βR2 and the C-terminal tail are deleted; also called 950 construct; source: HEK293F, transiently transfected; not shown: mEGFP, C-terminal, kept; Twinstrep, C-terminal, kept) SSGGSGHTPTTQATHADDHDLTTHNGTEEHDDGHDDGHDDLHAHAPKVIVFISGSCLFGAISRSLFKKLPIPYTVVLLILGAILGVVASNVPLVEEHTRDVAHMDPHVLLQIFLPVLIFESAFAMDVHTFMRSFSQVCILALFGLVVASVLTAVLAMNLFNYNWNFSEAMMFGAIMSATDPVAVVALLKDLGASKQLGTIIEGESLLNDGCAIVIFNVFMKMVFFPQLTSTVGQNVLYFLQVAVAGPLWGYAVAKVTVFFLSHIFNDALVEITITLAATYLTYYIGDIWLEVSGVLAVVVLGLIVNAEKTSISPEVEVFLHRFWEMLAYLANTLIFMMVGVVVTQKALVAVDKMDWFYLIILYLAITIIRGMVISLFSPILSRIGYGLTWRNAVIMTWGGLRGAVGLALALVVENLAGNDVIGSKFLFHTAGIVVLTLVINATTIQTLLRILGMSDISIPKRLAMAGAVRRIHEGQNRTLNMLKSDRFLADADWDIATAACEISDPYSALSDDENAPADELTLGERKSVCPGCKAMVPNEPSPREFADMMEEARLRMLKAEKISYWKQFEHGMLAREALRLLVQHAEVAADEKDQFILVDDLKKSWQIKGIYPWLKRKLEDLISEKKIAAIPMPKYKLGKLMYKICHHMAFEVTINIAIVLNIVPIIMEFVVQDKMASVSTMAAPGSTVSSEPSSLQKIEDALRISNYVFFVIYAIEAIVKILGLGRHYIVSHWNKFDAFILVVALVDIIIAETLLKGSITINLSSIKVVKLFRLLRGLRMLRLTKALIPKLILVVNGKINNQLSLGYDVGKGYIIGEEEVGKIIDRMVDNKKILRELKHISETGRLQVVKELGLLQREHPGIAVSVKTRQAIRTILNHSRETIHELQGAGLLDEMEAHKLELTVEIKMKRLMNAPSSIPP	2		
sp9C1 truncated at amino acid position 494, eGFP fusion (domain or fragment, Strongylocentrotus purpuratus, UniProt A3RL54 30-494, looked up, the ARD is deleted, the ion-exchange domain (ED) remains; source: HEK293F, transiently transfected; not shown: mEGFP, C-terminal, kept; Twinstrep, C-terminal, kept) SSGGSGHTPTTQATHADDHDLTTHNGTEEHDDGHDDGHDDLHAHAPKVIVFISGSCLFGAISRSLFKKLPIPYTVVLLILGAILGVVASNVPLVEEHTRDVAHMDPHVLLQIFLPVLIFESAFAMDVHTFMRSFSQVCILALFGLVVASVLTAVLAMNLFNYNWNFSEAMMFGAIMSATDPVAVVALLKDLGASKQLGTIIEGESLLNDGCAIVIFNVFMKMVFFPQLTSTVGQNVLYFLQVAVAGPLWGYAVAKVTVFFLSHIFNDALVEITITLAATYLTYYIGDIWLEVSGVLAVVVLGLIVNAEKTSISPEVEVFLHRFWEMLAYLANTLIFMMVGVVVTQKALVAVDKMDWFYLIILYLAITIIRGMVISLFSPILSRIGYGLTWRNAVIMTWGGLRGAVGLALALVVENLAGNDVIGSKFLFHTAGIVVLTLVINATTIQTLLRILGMSDISIPKRLAM	2		
sp9C1-eGFP, full length (FSEC sample) (natural protein, Strongylocentrotus purpuratus, UniProt A3RL54 30-1325, looked up, SLC9C1 (sperm-specific Na+/H+ exchanger), Strongylocentrotus purpuratus, full length; followed by a PreScission site and mEGFP-Twinstrep; A PreScission protease site lies between SLC9C1 and the mEGFP-Twinstrep tag; also called FL; FL-sp9C1; source: HEK293F, transiently transfected; not shown: mEGFP, C-terminal, kept; Twinstrep, C-terminal, kept) SSGGSGHTPTTQATHADDHDLTTHNGTEEHDDGHDDGHDDLHAHAPKVIVFISGSCLFGAISRSLFKKLPIPYTVVLLILGAILGVVASNVPLVEEHTRDVAHMDPHVLLQIFLPVLIFESAFAMDVHTFMRSFSQVCILALFGLVVASVLTAVLAMNLFNYNWNFSEAMMFGAIMSATDPVAVVALLKDLGASKQLGTIIEGESLLNDGCAIVIFNVFMKMVFFPQLTSTVGQNVLYFLQVAVAGPLWGYAVAKVTVFFLSHIFNDALVEITITLAATYLTYYIGDIWLEVSGVLAVVVLGLIVNAEKTSISPEVEVFLHRFWEMLAYLANTLIFMMVGVVVTQKALVAVDKMDWFYLIILYLAITIIRGMVISLFSPILSRIGYGLTWRNAVIMTWGGLRGAVGLALALVVENLAGNDVIGSKFLFHTAGIVVLTLVINATTIQTLLRILGMSDISIPKRLAMAGAVRRIHEGQNRTLNMLKSDRFLADADWDIATAACEISDPYSALSDDENAPADELTLGERKSVCPGCKAMVPNEPSPREFADMMEEARLRMLKAEKISYWKQFEHGMLAREALRLLVQHAEVAADEKDQFILVDDLKKSWQIKGIYPWLKRKLEDLISEKKIAAIPMPKYKLGKLMYKICHHMAFEVTINIAIVLNIVPIIMEFVVQDKMASVSTMAAPGSTVSSEPSSLQKIEDALRISNYVFFVIYAIEAIVKILGLGRHYIVSHWNKFDAFILVVALVDIIIAETLLKGSITINLSSIKVVKLFRLLRGLRMLRLTKALIPKLILVVNGKINNQLSLGYDVGKGYIIGEEEVGKIIDRMVDNKKILRELKHISETGRLQVVKELGLLQREHPGIAVSVKTRQAIRTILNHSRETIHELQGAGLLDEMEAHKLELTVEIKMKRLMNAPSSIPPPPPENLLKNVSWLAGDMKLIDFIKARASLLHFDYGEVIVREGDESDGLFLIVSGLVKLYGKSAFLDHDNPPVTAGSEENEVFEDYLTVGNVIGEMGVLTKKPRNATVTCETTVQVYFITAEDMNIAIDTFTLYPSLEYRLWRVVAIRIATPLIMEQMAFQGWTQEKVKLHLERGYLVDLAESHFQFNIDATLEDVILINGTAYNAHTREEIRSPCLISRTVHKLTFQYTATEEPRLFVVRNAEYNGPILDGRLDVDSKRSLISITEISSNMCLKHAAELRQKNSKVMLSRKSSGAAAKEEEDCIPNTSDVEQAAGVSPSVPTKTTPKPKSFLPSLGLSMSKERVNGEAVEESPVKTKQGEETPETEEGAAPRVNV	2		ρsat (saturating ratio of monomer to dimer species), 5 mM cAMP [2]: 2.4; ρsat (saturating ratio of monomer to dimer species), cAMP-free [2]: ~0.9
sp9C1 Y1035C mutant, eGFP fusion (natural protein, Strongylocentrotus purpuratus, UniProt A3RL54 30-1325, looked up, SLC9C1, Strongylocentrotus purpuratus, with Y1035C; source: HEK293F, transiently transfected; not shown: mEGFP, C-terminal, kept; Twinstrep, C-terminal, kept) SSGGSGHTPTTQATHADDHDLTTHNGTEEHDDGHDDGHDDLHAHAPKVIVFISGSCLFGAISRSLFKKLPIPYTVVLLILGAILGVVASNVPLVEEHTRDVAHMDPHVLLQIFLPVLIFESAFAMDVHTFMRSFSQVCILALFGLVVASVLTAVLAMNLFNYNWNFSEAMMFGAIMSATDPVAVVALLKDLGASKQLGTIIEGESLLNDGCAIVIFNVFMKMVFFPQLTSTVGQNVLYFLQVAVAGPLWGYAVAKVTVFFLSHIFNDALVEITITLAATYLTYYIGDIWLEVSGVLAVVVLGLIVNAEKTSISPEVEVFLHRFWEMLAYLANTLIFMMVGVVVTQKALVAVDKMDWFYLIILYLAITIIRGMVISLFSPILSRIGYGLTWRNAVIMTWGGLRGAVGLALALVVENLAGNDVIGSKFLFHTAGIVVLTLVINATTIQTLLRILGMSDISIPKRLAMAGAVRRIHEGQNRTLNMLKSDRFLADADWDIATAACEISDPYSALSDDENAPADELTLGERKSVCPGCKAMVPNEPSPREFADMMEEARLRMLKAEKISYWKQFEHGMLAREALRLLVQHAEVAADEKDQFILVDDLKKSWQIKGIYPWLKRKLEDLISEKKIAAIPMPKYKLGKLMYKICHHMAFEVTINIAIVLNIVPIIMEFVVQDKMASVSTMAAPGSTVSSEPSSLQKIEDALRISNYVFFVIYAIEAIVKILGLGRHYIVSHWNKFDAFILVVALVDIIIAETLLKGSITINLSSIKVVKLFRLLRGLRMLRLTKALIPKLILVVNGKINNQLSLGYDVGKGYIIGEEEVGKIIDRMVDNKKILRELKHISETGRLQVVKELGLLQREHPGIAVSVKTRQAIRTILNHSRETIHELQGAGLLDEMEAHKLELTVEIKMKRLMNAPSSIPPPPPENLLKNVSWLAGDMKLIDFIKARASLLHFDYGEVIVREGDESDGLFLIVSGLVKLYGKSAFLDHDNPPVTAGSEENEVFEDCLTVGNVIGEMGVLTKKPRNATVTCETTVQVYFITAEDMNIAIDTFTLYPSLEYRLWRVVAIRIATPLIMEQMAFQGWTQEKVKLHLERGYLVDLAESHFQFNIDATLEDVILINGTAYNAHTREEIRSPCLISRTVHKLTFQYTATEEPRLFVVRNAEYNGPILDGRLDVDSKRSLISITEISSNMCLKHAAELRQKNSKVMLSRKSSGAAAKEEEDCIPNTSDVEQAAGVSPSVPTKTTPKPKSFLPSLGLSMSKERVNGEAVEESPVKTKQGEETPETEEGAAPRVNV		binds	
sp9C1 K880A mutant, eGFP fusion (natural protein, Strongylocentrotus purpuratus, UniProt A3RL54 30-1325, looked up, SLC9C1, Strongylocentrotus purpuratus, with K880A; also called R880A (as printed once); source: HEK293F, transiently transfected; not shown: mEGFP, C-terminal, kept; Twinstrep, C-terminal, kept) SSGGSGHTPTTQATHADDHDLTTHNGTEEHDDGHDDGHDDLHAHAPKVIVFISGSCLFGAISRSLFKKLPIPYTVVLLILGAILGVVASNVPLVEEHTRDVAHMDPHVLLQIFLPVLIFESAFAMDVHTFMRSFSQVCILALFGLVVASVLTAVLAMNLFNYNWNFSEAMMFGAIMSATDPVAVVALLKDLGASKQLGTIIEGESLLNDGCAIVIFNVFMKMVFFPQLTSTVGQNVLYFLQVAVAGPLWGYAVAKVTVFFLSHIFNDALVEITITLAATYLTYYIGDIWLEVSGVLAVVVLGLIVNAEKTSISPEVEVFLHRFWEMLAYLANTLIFMMVGVVVTQKALVAVDKMDWFYLIILYLAITIIRGMVISLFSPILSRIGYGLTWRNAVIMTWGGLRGAVGLALALVVENLAGNDVIGSKFLFHTAGIVVLTLVINATTIQTLLRILGMSDISIPKRLAMAGAVRRIHEGQNRTLNMLKSDRFLADADWDIATAACEISDPYSALSDDENAPADELTLGERKSVCPGCKAMVPNEPSPREFADMMEEARLRMLKAEKISYWKQFEHGMLAREALRLLVQHAEVAADEKDQFILVDDLKKSWQIKGIYPWLKRKLEDLISEKKIAAIPMPKYKLGKLMYKICHHMAFEVTINIAIVLNIVPIIMEFVVQDKMASVSTMAAPGSTVSSEPSSLQKIEDALRISNYVFFVIYAIEAIVKILGLGRHYIVSHWNKFDAFILVVALVDIIIAETLLKGSITINLSSIKVVKLFRLLRGLRMLRLTKALIPKLILVVNGKINNQLSLGYDVGKGYIIGEEEVGKIIDRMVDNKKILRELKHISETGRLQVVAELGLLQREHPGIAVSVKTRQAIRTILNHSRETIHELQGAGLLDEMEAHKLELTVEIKMKRLMNAPSSIPPPPPENLLKNVSWLAGDMKLIDFIKARASLLHFDYGEVIVREGDESDGLFLIVSGLVKLYGKSAFLDHDNPPVTAGSEENEVFEDYLTVGNVIGEMGVLTKKPRNATVTCETTVQVYFITAEDMNIAIDTFTLYPSLEYRLWRVVAIRIATPLIMEQMAFQGWTQEKVKLHLERGYLVDLAESHFQFNIDATLEDVILINGTAYNAHTREEIRSPCLISRTVHKLTFQYTATEEPRLFVVRNAEYNGPILDGRLDVDSKRSLISITEISSNMCLKHAAELRQKNSKVMLSRKSSGAAAKEEEDCIPNTSDVEQAAGVSPSVPTKTTPKPKSFLPSLGLSMSKERVNGEAVEESPVKTKQGEETPETEEGAAPRVNV		binds	
sp9C1 truncated at amino acid position 657, eGFP fusion (domain or fragment, Strongylocentrotus purpuratus, UniProt A3RL54 30-657, looked up, the ARD is partly deleted; source: HEK293F, transiently transfected; not shown: mEGFP, C-terminal, kept; Twinstrep, C-terminal, kept) SSGGSGHTPTTQATHADDHDLTTHNGTEEHDDGHDDGHDDLHAHAPKVIVFISGSCLFGAISRSLFKKLPIPYTVVLLILGAILGVVASNVPLVEEHTRDVAHMDPHVLLQIFLPVLIFESAFAMDVHTFMRSFSQVCILALFGLVVASVLTAVLAMNLFNYNWNFSEAMMFGAIMSATDPVAVVALLKDLGASKQLGTIIEGESLLNDGCAIVIFNVFMKMVFFPQLTSTVGQNVLYFLQVAVAGPLWGYAVAKVTVFFLSHIFNDALVEITITLAATYLTYYIGDIWLEVSGVLAVVVLGLIVNAEKTSISPEVEVFLHRFWEMLAYLANTLIFMMVGVVVTQKALVAVDKMDWFYLIILYLAITIIRGMVISLFSPILSRIGYGLTWRNAVIMTWGGLRGAVGLALALVVENLAGNDVIGSKFLFHTAGIVVLTLVINATTIQTLLRILGMSDISIPKRLAMAGAVRRIHEGQNRTLNMLKSDRFLADADWDIATAACEISDPYSALSDDENAPADELTLGERKSVCPGCKAMVPNEPSPREFADMMEEARLRMLKAEKISYWKQFEHGMLAREALRLLVQHAEVAADEKDQFILVDDLKKSWQIKGIYPWLKRKLEDLISEKKI	2		

— article PMC10602139, “Architecture and rearrangements of a sperm-specific Na^+/H^+ exchanger” (Research Square, 2023)
